Measurements as given in US20200140826A1, “Maintenance and Expansion of Pancreatic Progenitor Cells” (AGENCY FOR SCIENCE, TECHNOLOGY AND RESEARCH, priority 2017, published 2020).

Test system: cPP cells
Experiment: Omission of individual components from complete cPP culture medium on 3T3-J2 feeders (phase contrast, qRT-PCR)
Format: cell-based, human
Description: Gentle cell dissociation reagent (STEMCELL Technologies, 07174) was used to passage cPP cells as aggregates that were then seeded at a 1:6 split ratio onto a layer of 3T3-J2 feeders (0.5×10^6 to 1×10^6 cells/cm^2) in medium composed of advanced DMEM/F12 (Thermo Fisher Scientific, 21634010), 2 mM L-glutamine (Thermo Fisher Scientific, 25030), 100 U/mL penicillin/streptomycin (Thermo Fisher Scientific, 15140122), 1× N2 supplement (Thermo Fisher Scientific, 17502-048), 1× B27 supplement (Thermo Fisher Scientific, 17504-044), 30 nM dexamethasone (STEMCELL Technologies, 72092), 50 ng/mL EGF (R&D Systems, 236-EG-200), 50 ng/mL FGF10 (Source Bioscience, ABC144), 3 μM RA (Sigma, R2625), 10 μM SB431542 (Calbiochem, 616464), and 1 μM DAPT (Sigma, D5942). If plating single cPP cells, complete medium was supplemented with 10 μM Y27632 for the first 48 hr (Sigma, Y0503). Medium was completely replenished every 2-3 days.
RNA was isolated from samples using an RNeasy mini kit (Qiagen, cat # 74104) and reverse transcribed to generate cDNA using a high-capacity reverse transcription kit and random hexamer primers (Applied Biosystems, 4368814,1 μg RNA per 20 μL reaction). Quantitative RT-PCR was carried out using SYBR Select Mastermix (Applied Biosystems, 4472908). Data were analyzed using the ΔΔCT method, and normalized to expression of the housekeeping gene TBP in each sample. […]

B1: FGF10: fibroblast growth factor 10, growth factor in the cPP culture medium (50 ng/mL) (protein, UniProt O15520 38-208, looked up)
Fibroblast growth factor 10: QALGQDMVSPEATNSSSSSFSSPSSAGRHVRSYNHLQGDVRWRKLFSFTKYFLKIEKNGKVSGTKKENCPYSILEITSVEIGVVAVKAINSNYYLAMNKKGKLYGSKEFNNDCKLKERIEENGYNTYASFNWQHNGRQMYVALNGKGAPRRGQKTRRKNTSAHFLPMVVHS
With B1 the “Effect of removing the component on cPP expansion, colony size and morphology” value (component individually omitted from complete medium, cPP cells cultured 6 days on 3T3-J2 feeders) was “did not significantly affect colony size or morphology in the short term” and the “Effect of removing the component on viability” value (component removed from the culture media over multiple passages) was “noticeable loss of viability”.
